This is an account of results in patent US20260152727A1.

“And” between values parts separate entries of the source, which are not always exact repeats. Equal values may be shown once.

In this assay the target is RSV fusion (F) protein (prefusion F, on recombinant RSV strain A2 virions) (respiratory syncytial virus (strain A2)) (UniProt P03420). Kind of assay: cell-based or functional assay.
Sequence of UniProt P03420 (P03420 26-574): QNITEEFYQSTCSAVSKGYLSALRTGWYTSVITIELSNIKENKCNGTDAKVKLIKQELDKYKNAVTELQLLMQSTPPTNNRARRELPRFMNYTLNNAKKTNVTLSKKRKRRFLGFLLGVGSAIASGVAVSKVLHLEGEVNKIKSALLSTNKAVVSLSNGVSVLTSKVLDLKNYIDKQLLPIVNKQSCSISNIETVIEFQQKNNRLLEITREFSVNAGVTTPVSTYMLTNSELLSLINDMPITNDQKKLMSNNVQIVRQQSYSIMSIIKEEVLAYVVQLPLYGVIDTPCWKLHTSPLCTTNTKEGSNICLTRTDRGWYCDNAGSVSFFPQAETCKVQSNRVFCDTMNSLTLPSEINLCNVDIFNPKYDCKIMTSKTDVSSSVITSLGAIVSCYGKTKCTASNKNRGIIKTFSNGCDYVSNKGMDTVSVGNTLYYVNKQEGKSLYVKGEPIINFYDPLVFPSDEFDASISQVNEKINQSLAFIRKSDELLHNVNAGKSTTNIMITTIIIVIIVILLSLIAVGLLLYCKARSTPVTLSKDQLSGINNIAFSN

anti-prefusion F antibody D25: the complete neutralization of 300 PFU of RSV-HRP (HRP signal OD490, HEp-2 cells) amounted to 370 ng/mL; the complete neutralization of 300 PFU of RSV-Lucia (secreted luciferase, luminometer) (antibody dilution (1:x, of 1 mg/ml)) turned out to be 2700; the highest dilution at which the antibody negatively impacted RSV infectivity (RSV-Lucia) was 5 ng/mL and 1.7 ng/mL; the highest dilution at which the antibody negatively impacted RSV-HRP infectivity is 5 ng/mL.
